Source: the Human Domainome abundance scans (Beltran et al. 2025)

B1: Unconventional myosin-Ie, residues 1051 to 1108; numbered along this chain, Q12965 (parent)
chain: PQVPQCKALYAYDAQDTDELSFNANDIIDIIKEDPSGWWTGRLRGKQGLFPNNYVTKI

Variants of: B1
Assay: abundance fitness (aPCA) (normalised: wild type 0, dead -1); higher = more abundant; growth selection in yeast, the domain comes from the species named
Conditions: Homo sapiens

Abundance fitness, by site and new letter:
I58: L -0.091 | M 0.015 | R -0.32 | S -0.15 | Y -0.299 | F -0.116 | V -0.055 | D -0.089 | H -0.333 | G -0.456 | T -0.484
V55: C -0.197 | D -0.777 | T -0.111 | A -0.387 | Q -1.02 | N -0.632 | S -0.732 | W -0.645 | P -0.747 | M -0.534 | G -0.94 | I -0.27 | E -0.945
Y54: P -0.814 | V -0.145 | Q -0.43
K57: V -0.257 | G -0.391 | S -0.323 | A -0.337 | M -0.34 | Y 0.151 | W -0.554 | Q -0.315 | L -0.442 | T -0.365 | D -0.295 | N -0.143 | E -0.266 | P -0.218
T56: C -0.074 | A -0.075 | S -0.042 | G -0.255 | N -0.078 | E 0.033 | M 0.023 | H 0.044 | V -0.074 | I -0.261 | W -0.122 | Y -0.197 | K -0.165 | D -0.034 | R -0.097 | F -0.023 | P -0.534
